Source: patent US20200140532A1 (Ablynx, published 2020)

B1: C01010046 (601E08-ALB26) (VHH, not shown: small tags and cut ends)
VHH: DVQLVESGGGLVQPGGSLRLSCTASGRTFSSYAVGWFRQAPGKEREFVAAISRSGRSTYYADSVKGRFTISRDNSKNTVYLQMNSLRPEDTAVYYCAAGLSYYSPHAYYDYWGQGTLVTVSS
B2: C01010097 (608A05-ALB26) (VHH, not shown: small tags and cut ends)
VHH: DVQLVESGGGLVQPGGSLRLSCAASGRTFSTYTMGWFRQAPGKEREFVAAISWSGGTTYYADSVKGRFTISRDNSKNTVYLQMNSLRPEDTAVYYCAARPRYYYYSLYSYDYWGQGTLVTVSS
B3: C01010094 (604F02-ALB26) (VHH, not shown: small tags and cut ends)
VHH: DVQLVESGGGLVQPGGSLRLSCAASGRTFSSYTMGWFRQAPGKEREFVAAISWSGGRTYYADSVKGRFTISRDNSKNTVYLQMNSLRPEDTAVYYCAAYRRRRASSNRGLWDYWGQGTLVTVSS
notes: also called C010100094
B4: C01010060 (606A07-ALB26) (VHH, not shown: small tags and cut ends)
VHH: DVQLVESGGGLVQPGGSLRLSCVASGRTFSIYGMGWFRQAPGKEREFVAAINGGSRTYYADSVKGRFTISRDNSKNTVYLQMNSLRPEDTAVYYCAADRSGYGTSLDWWYDYWGQGTLVTVSS
B5: C01010054 (114F08-ALB26) (VHH, not shown: small tags and cut ends)
VHH: EVQLVESGGGLVQAGGSLRLSCAASGSTFIINVVRWYRRTPGKQRELVATISSGGNANYVDSVRGRFSISRDGAKNAVDLQMNGLKPEDTAVYYCNVPTTHYGGVYYGPYWGQGTQVTVSS
notes: also called C010100054

Columns and labels:
[1] = target: recombinant human Neurocan (human, UniProt O14594 23-1321, limits assumed); test: ELISA on recombinant human Neurocan
[2] = target: T1, recombinant bovine Aggrecan G1-IGD-G2 (bovine, UniProt P13608 20-684, limits assumed); test: ELISA on recombinant G1-IGD-G2
T1 construct: also called Bov G1-IGD-G2; Boy G1-IGD-G2

[3] = target: T2, recombinant dog Aggrecan G1-IGD-G2 (dog, UniProt Q28343 20-693, limits assumed); test: ELISA on recombinant G1-IGD-G2
T2 construct: also called Dog G1-IGD-G2

[4] = target: T3, recombinant human Aggrecan G1-IGD-G2 (human, UniProt P16112 20-676); test: ELISA on recombinant G1-IGD-G2
T3 construct: Only the G1-IGD-G2 region was used (R&D Systems 1220-PG is named for the immunogen); also called Hu G1-IGD-G2

[5] = target: T4, recombinant rat Aggrecan G1-IGD-G2 (rat, UniProt P07897 20-684, limits assumed); test: ELISA on recombinant G1-IGD-G2
T4 construct: also called Rat G1-IGD-G2

[6] = target: T5, recombinant human Brevican (human, UniProt Q96GW7 23-911, limits assumed); test: ELISA on recombinant human Brevican
T5 sequence: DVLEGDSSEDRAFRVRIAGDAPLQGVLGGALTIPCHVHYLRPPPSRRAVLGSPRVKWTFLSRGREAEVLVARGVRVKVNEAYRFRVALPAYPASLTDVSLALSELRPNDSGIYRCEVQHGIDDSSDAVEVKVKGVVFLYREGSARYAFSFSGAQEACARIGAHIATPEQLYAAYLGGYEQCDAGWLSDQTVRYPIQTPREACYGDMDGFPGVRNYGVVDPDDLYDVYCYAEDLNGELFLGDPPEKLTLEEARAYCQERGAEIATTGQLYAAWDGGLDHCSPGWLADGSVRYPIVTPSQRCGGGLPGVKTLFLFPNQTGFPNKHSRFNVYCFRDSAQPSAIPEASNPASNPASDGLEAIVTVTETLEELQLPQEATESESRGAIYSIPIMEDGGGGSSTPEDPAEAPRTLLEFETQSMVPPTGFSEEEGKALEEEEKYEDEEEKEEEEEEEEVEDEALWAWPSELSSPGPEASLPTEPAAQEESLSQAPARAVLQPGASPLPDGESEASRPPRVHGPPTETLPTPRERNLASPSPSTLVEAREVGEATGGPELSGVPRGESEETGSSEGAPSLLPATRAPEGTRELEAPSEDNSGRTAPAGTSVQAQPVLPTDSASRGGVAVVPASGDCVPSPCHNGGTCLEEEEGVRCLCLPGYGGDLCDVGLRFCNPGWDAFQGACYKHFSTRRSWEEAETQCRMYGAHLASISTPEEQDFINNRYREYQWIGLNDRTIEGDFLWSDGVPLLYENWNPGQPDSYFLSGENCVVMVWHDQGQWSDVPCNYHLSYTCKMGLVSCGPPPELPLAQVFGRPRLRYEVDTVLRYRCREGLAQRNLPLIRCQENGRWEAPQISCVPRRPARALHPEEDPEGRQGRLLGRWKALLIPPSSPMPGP

[7] = target: T1, recombinant bovine Aggrecan G1-IGD-G2; test: SPR (ProteOn), off-rate only indicative
Method: (§1) SPR (ProteOn) experiments were carried out for the “monovalent” Aggrecan-ALB26 formats in order to determine off-rates.

[8] = target: T2, recombinant dog Aggrecan G1-IGD-G2; test: SPR (ProteOn), off-rate only indicative
Method: as §1

[9] = target: T3, recombinant human Aggrecan G1-IGD-G2; test: SPR (ProteOn), off-rate only indicative
Method: as §1

[10] = target: T4, recombinant rat Aggrecan G1-IGD-G2; test: SPR (ProteOn), off-rate only indicative
Method: as §1

Binder | binding result [1] | EC50 [2] | EC50 [3] | EC50 [4] | EC50 [5] | binding result [6] | koff [7] | koff [8] | koff [9] | koff [10]
B1 | no binding | 1.2 nM | 0.61 nM | 5.1 nM | 0.32 nM | no binding | 0.0013 s⁻¹ | 0.0071 s⁻¹ | 0.0034 s⁻¹ | 0.00025 s⁻¹
B2 | no binding | 0.28 nM | 25 nM | 0.24 nM | 0.33 nM | no binding | 0.0027 s⁻¹ | 0.083 s⁻¹ | 0.0025 s⁻¹ | 0.0015 s⁻¹
B3 | no binding | 1.6 nM | 2.6 nM | 1.2 nM | 5.9 nM | no binding | 0.26 s⁻¹ | 0.12 s⁻¹ | 0.17 s⁻¹ | 0.26 s⁻¹
B4 | – | – | 6.9 nM | 12 nM | 8.4 nM | no binding | 0.027 s⁻¹ | 0.038 s⁻¹ | 0.021 s⁻¹ | 0.021 s⁻¹
B5 | no binding | 5.6 nM | 3 nM | 6 nM | 7.6 nM | no binding | 0.47 s⁻¹ | 0.011 s⁻¹ | 0.013 s⁻¹ | 0.65 s⁻¹
